This note sets out measurements from the RNAGym collection of RNA variant scans (doi:10.1073/pnas.2313332121).

B1: TPR t1 (parent)
chain: GACCAAUCUGCCCUCAGAGCUCGAGAACAUCUUCGGAUGCAGAGGAGGCAGGCUUCGGUGGCGCGAUAGCGCCAACGUCCUCAACCUCCAAUGCAUCCCACCACAUGAUGAUGCCUGAAGAGCCUUGGUUUUUUG

This data set covers variants of B1. In words: polymerase ribozyme fitness, log enrichment relative to wild type (log ratio); higher = more active; in vitro selection for triplet polymerase activity. The gist of the method:
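Each subunit of a heterodimeric triplet polymerase ribozyme was mutagenized into a library by PCR, transcribed, and subjected to one round of in vitro selection, run in triplicate. Libraries were annealed with a biotinylated primer, the partner subunit and triplets, incubated frozen at −7 °C, and extended constructs were gel-excised, captured on streptavidin beads and recovered by RT-PCR. Input and output libraries were sequenced on Illumina, keeping genotypes with ≥10 input reads and ≥1 read per output. Fitness is log base 2 of genotype enrichment divided by wild-type enrichment, from inverse-variance-weighted replicate averages.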
C11G G42U G45U G51C G120A U134G: the “polymerase ribozyme fitness (log ratio)” value was -4.64.
In the case of G17U G39U C88U A91C G117U, the “polymerase ribozyme fitness (log ratio)” value was -3.62.
Take C22U A43G G61U C115A: the “polymerase ribozyme fitness (log ratio)” value is -5.75.
The result for C20A A50G G52A C124A reads -1.12; that for C53U C123G, 1.61.
In the case of G69C U116C, the “polymerase ribozyme fitness (log ratio)” value is -1.92.
The result for A6U G60A C82G C101U G120A G128U reads -2.36.
With G23A G61A U87C, the “polymerase ribozyme fitness (log ratio)” value was -6.59.
As to G47C G52U A74G U96A, the “polymerase ribozyme fitness (log ratio)” value is -4.89.
For C3U G17C G61C G117U, the “polymerase ribozyme fitness (log ratio)” value was -5.52.
With U9A G17U U78C C82G C86G C124U U125C, the “polymerase ribozyme fitness (log ratio)” value is -0.551.
Take G44C U112C: the “polymerase ribozyme fitness (log ratio)” value amounted to 0.766.
The result for C34A A68G A100C C123U reads -5.6; that for C40G A46U C53U C62A, -3.89; that for G57A G63U G122A, -2.81.
Take C34A C72A C102U: the “polymerase ribozyme fitness (log ratio)” value is -2.07.
Turning to C20A C40U U132A, the “polymerase ribozyme fitness (log ratio)” value is -2.39.
Regarding C12U G42C C73A G122A, the “polymerase ribozyme fitness (log ratio)” value was -0.687.
For A2U A50G C73U U78A, the “polymerase ribozyme fitness (log ratio)” value was -3.42.
Turning to A43U C53A C62A G93A U112C G128U, the “polymerase ribozyme fitness (log ratio)” value was -4.57.
For the variant C20U G57A G58C, the “polymerase ribozyme fitness (log ratio)” value was -2.72.
C22G C34A G52C: the “polymerase ribozyme fitness (log ratio)” value was -4.14.
For the variant G57U G61C U78G C114U A118U, the “polymerase ribozyme fitness (log ratio)” value is -5.83.
As for A6C C11A C85U U112G, the figure is -2.47; as for G39U A90G C102A G117U A121C, -5.4.
With A6U G10U C13A C22A C49U G63A, the “polymerase ribozyme fitness (log ratio)” value is -5.88.
For the variant C102U U132A, the “polymerase ribozyme fitness (log ratio)” value was -1.83.
The result for A16G A27G U32C A50G reads -4.47.
As to C3A C13U C34A G58C G135U, the “polymerase ribozyme fitness (log ratio)” value is -4.09.
As for G10A G69U G93A G110A A121U U132C, the figure is 0.47; as for U7G G42A G63C U81A U109A U130C, -6.25.
In the case of C8U U78C U92G C115A A119U, the “polymerase ribozyme fitness (log ratio)” value is -0.985.
Take C13A C49U U87G C123A U131G: the “polymerase ribozyme fitness (log ratio)” value was -0.403.
As for A46G C49G G69C C104U, the figure is -3.16; as for C56U A100U U129A, -1.49.
Consider C12G C13A A24G U106G C124A, for which the “polymerase ribozyme fitness (log ratio)” value was -1.63.
As to A50C G69A U78C C97U, the “polymerase ribozyme fitness (log ratio)” value was -4.07.
As for C8G U126C, the figure is -0.307; as for C13A C76G C97U C102A C104U, -3.66; as for C34U C70G, -5.34.
The result for C20U U54A C73G U133A reads -1.99; that for C13G G117U, -4; that for A27C C124G, -0.608.
Turning to U7C C31U, the “polymerase ribozyme fitness (log ratio)” value is -4.85.
Turning to C20G A46U C114U, the “polymerase ribozyme fitness (log ratio)” value was -3.16.
As for G60C U78A A91U, the figure is -2.07.
As to A2U G65A C80G A84G C115U G117A G127U, the “polymerase ribozyme fitness (log ratio)” value is -5.92.
As to C34A A37U G69C G120A, the “polymerase ribozyme fitness (log ratio)” value is -5.05.
As to C12G G36C G58A, the “polymerase ribozyme fitness (log ratio)” value is -1.29.
With A43U C49G U78A C115A, the “polymerase ribozyme fitness (log ratio)” value is -3.44.
As to G52U G93A C114G, the “polymerase ribozyme fitness (log ratio)” value was -4.8.
With A27G G48C G71C G127C, the “polymerase ribozyme fitness (log ratio)” value is -5.17.
Regarding G77U G128C, the “polymerase ribozyme fitness (log ratio)” value was -3.09.
In the case of A41C C72A, the “polymerase ribozyme fitness (log ratio)” value is -2.08.
Take G36U C53A C89G: the “polymerase ribozyme fitness (log ratio)” value was -2.84.
As for C49U C73G, the “polymerase ribozyme fitness (log ratio)” value is -0.732.
As for U54G U109G, the “polymerase ribozyme fitness (log ratio)” value is -4.29.
For C34A C40U A41U C101A C114A G120A, the “polymerase ribozyme fitness (log ratio)” value was -6.72.
With A83C C114G, the “polymerase ribozyme fitness (log ratio)” value was -2.24.
For the variant C12G U59G A90G G113A, the “polymerase ribozyme fitness (log ratio)” value was -2.53.
With C20A U87G A100G C102A A119G, the “polymerase ribozyme fitness (log ratio)” value is -5.22.
As for A91C G117C, the figure is -1.71.
As to G69U C123U, the “polymerase ribozyme fitness (log ratio)” value worked out at 1.98.
As for U9A G23A G25C A43C G51A A68G U106A C123U, the figure is -6.69; as for C8A G120A, 1.88; as for U32C G48A G52U A66U C114A, -5.75.
Regarding C85U U112C, the “polymerase ribozyme fitness (log ratio)” value came to 1.15.
With C56A C86G C102A, the “polymerase ribozyme fitness (log ratio)” value was -3.16.
With C72A A121G, the “polymerase ribozyme fitness (log ratio)” value was 1.6.
As for G10C A27U U87G, the figure is -3.55; as for C49G U55C C98U, -2.01; as for C8G G17U U81A U87C U96C G113A, -4.04.
For the variant C70U G93C C115U, the “polymerase ribozyme fitness (log ratio)” value is -3.35.
For the variant C73U U109G, the “polymerase ribozyme fitness (log ratio)” value was -4.33.
As to C34A G113C, the “polymerase ribozyme fitness (log ratio)” value is -5.75.
With C49U G60U, the “polymerase ribozyme fitness (log ratio)” value is -0.405.
U9G C56A C79G: the “polymerase ribozyme fitness (log ratio)” value is -1.55.
Consider C11G G71U, for which the “polymerase ribozyme fitness (log ratio)” value is 0.0897.
As for C3U U14C C62U A118G U129C, the “polymerase ribozyme fitness (log ratio)” value was -2.13.
U32C A105G U109G G117A: the “polymerase ribozyme fitness (log ratio)” value is -7.37.
In the case of C8A G71A, the “polymerase ribozyme fitness (log ratio)” value came to 0.22.
Regarding C89A U132C, the “polymerase ribozyme fitness (log ratio)” value is -1.96.
For the variant G10A G52A G60A C79A C115A, the “polymerase ribozyme fitness (log ratio)” value was -2.07.
The result for C11G A27G C85A U125A reads -2.01.
